According to PMC7494424 (Nature methods, 2019):

Target: the molecule itself
Assay: cryo-EM structure

Row | Protein | stoichiometry N
1 | P. falciparum M18 aspartyl aminopeptidase (enzyme, UniProt Q8I2J3 1-570, looked up) MDKKAREYAQDALKFIQRSGSNFLACKNLKERLENNGFINLSEGETWNLNKNEGYVLCKENRNICGFFVGKNFNIDTGSILISIGHIDSCALKISPNNNVIKKKIHQINVECYGSGLWHTWFDRSLGLSGQVLYKKGNKLVEKLIQINKSVLFLPSLAIHLQNRTRYDFSVKINYENHIKPIISTTLFNQLNKCKRNNVHHDTILTTDTKFSHKENSQNKRDDQMCHSFNDKDVSNHNLDKNTIEHLTNQQNEEKNKHTKDNPNSKDIVEHINTDNSYPLLYLLSKELNCKEEDILDFELCLMDTQEPCFTGVYEEFIEGARFDNLLGSFCVFEGFIELVNSIKNHTSNENTNHTNNITNDINDNIHNNLYISIGYDHEEIGSLSEVGARSYCTKNFIDRIISSVFKKEIHEKNLSVQEIYGNLVNRSFILNVDMAHCSHPNYPETVQDNHQLFFHEGIAIKYNTNKNYVTSPLHASLIKRTFELYYNKYKQQIKYQNFMVKNDTPCGSTVGSMVAANLSMPGIDIGIPQLAMHSIREIAAVHDVFFLIKGVFAFYTYYNQVLSTCVHDK | 12
2 | P. falciparum glutamine synthetase (enzyme, UniProt C0H551 1-543, looked up) MKSVSFSNNAELYEYIKDKKNDVEIVACIITNLLGTYFKCFFYVKEITLNKLESGFSFDASSIKLCSDTEVSDFFIKVDHSTCYLEECDGKNILNIMCDIKRYNGFDYYKCPRTILKKTCEFVKNEGIADKVCIGNELEFFIFDKVNYSLDEYNTYLKVYDRESFSCKNDLSSIYGNHVVNKVEPHKDHFNNPNNEYLINDDSKKVKKKSGYFTTDPYDTSNIIKLRICRALNDMNINVQRYHHEVSTSQHEISLKYFDALTNADFLLITKQIIKTTVSSFNRTATFMPKPLVNDNGNGLHCNISLWKNNKNIFYHNDPSTFFLSKESFYFMYGIVKHAKALQAFCNATMNSYKRLVPGFETCQKLFYSFGSRSAVIRLSLINYSNPSEKRIEFRLPDCANSPHLVMAAIILAGYDGIKSKEQPLVPFESKDNHFYISSIFSKYVQHPENFNILTHALEGYESLHTINESPEFKNFFKCEEPQGISFSLVESLDALEKDHAFLTVNNIFTEEMIQEYIKFKREEIDAYNKYVNAYDYHLYYEC | 12
